Source: the supplement of paper PMC10567573

B1: TRIM35 (parent)
chain: WEVQVSPTCPVCKDRASPADLRTN
B2: SETD8 (parent)
chain: FVVEYHGDLIEITDAKKREALYAQ

Variants of: B1
Assay: protein stability index of a GFP-peptide fusion (GPS, HEK-293T) (PSI 1-6); higher = more stable
Conditions: c terminus: a fixed tail appended
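Note: lentivirally expressed fusions sorted by FACS into six bins by GFP to DsRed ratio, PSI derived from sequencing read proportions per bin multiplied by bin number.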

Variant | protein stability index
K13P | 3.74
K13V | 2.7
K13I | 2.17
K13W | 2.09
K13Q | 2.66
K13E | 2.71
K13M | 1.94
K13G | 1.7
K13R | 1.46
K13S | 2.19
K13C | 1.72
K13T | 2.31
K13F | 1.94
K13Y | 2.05
K13D | 2
K13L | 3.25
K13N | 2.39
P18Y | 2.15
P18F | 1.95
P18W | 1.39
P18M | 1.99
P18V | 2.57
P18N | 2.39
P18K | 2.52
P18D | 1.99

Variant | protein stability index
P18R | 3.2
P18Q | 2.13
P18T | 2.57
P18A | 2.04
P18I | 2.87
P18H | 1.6
P18G | 2.51
P18S | 2.51
R15S | 3.07
R15E | 3.43
R15H | 2.46
R15P | 3.31
R15M | 2.04
R15A | 3.22
R15W | 2.53
R15Q | 2.54
R15Y | 2.34
R15F | 2.07
R15L | 2.47
R15T | 2.54
R15I | 2.48
R15N | 2.48
R15C | 2.26
R15V | 2.74
D20S | 1.68

Variant | protein stability index
D20A | 2.02
D20K | 2.08
D20L | 2.15
D20H | 1.66
D20E | 2.95
D20P | 1.85
D20Y | 1.18
D20C | 1.91
D20M | 1.71
D20I | 1.47
D20V | 1.97
D20N | 2.2
D20G | 1.85
A16P | 2.29
A16D | 2.26
A16W | 1.85
A16F | 1.91
A16V | 2.49
A16T | 2.79
A16N | 1.84
A16H | 2.71
A16Q | 2.96
A16L | 1.82
A16S | 2.42
A16K | 2.8

Variant | protein stability index
A16Y | 2.08
A16I | 1.28
A16G | 2.15
A16E | 2.78
A16C | 1.41
A19T | 1.75
A19C | 2.31
A19N | 1.91
A19S | 1.78
A19M | 2.42
A19L | 2.12
A19I | 2.05
A19R | 1.54
A19H | 2.24
A19E | 3.35
A19P | 2.02
A19D | 3.38
A19K | 2.96
A19F | 2.99
A19G | 2.24
A19Y | 1.77
A19W | 2.3
A19Q | 2.31
N24A | 2.29
N24K | 3.12

Variant | protein stability index
N24M | 1.55
N24Q | 2.81
N24L | 1.71
N24C | 2.43
N24S | 2.57
N24E | 2.29
N24Y | 1.6
N24I | 1.7
N24P | 2.47
N24V | 1.19
N24D | 3.14
N24H | 1.42
N24R | 2.74
N24F | 1.55
R22P | 3.74
R22F | 2.22
R22D | 3.8
R22N | 2.75
R22I | 2.7
R22E | 4.1
R22H | 2.54
R22S | 2.91
R22V | 3.75
R22C | 2.91
R22L | 2.45

Variant | protein stability index
R22T | 2.91
R22Q | 3.33
R22G | 2.03
R22Y | 2.49
R22K | 3.34
S17L | 2.75
S17T | 2.05
S17I | 2.66
S17F | 2.19
S17N | 2.51
S17C | 1.81
S17H | 2.08
S17M | 2.01
S17Q | 2.84
S17P | 2.83
S17D | 3.31
S17Y | 4.01
S17V | 2.23
S17W | 3.4
S17E | 3.89
S17A | 2.48
T23Y | 1.73
T23N | 2.74
T23L | 3.09
T23D | 3.45

Variant | protein stability index
T23E | 2.83
T23F | 1.82
T23A | 2.28
T23H | 2.93
T23I | 2.18
T23M | 2.5
T23Q | 2.58
T23C | 2.13
T23W | 2.02
T23V | 2.06
T23S | 2.26
T23K | 3.12
T23P | 2.08
C12F | 3.29
C12T | 4.54
C12A | 4.59
C12E | 4.81
C12I | 3.4
C12H | 3.46
C12L | 3.8
C12M | 4.44
C12V | 3.89
C12K | 3.88
C12P | 3.86
C12Q | 3.9

Variant | protein stability index
C12G | 3.7
C12D | 4.14
L21N | 3.21
L21H | 2.54
L21F | 2
L21C | 3.26
L21A | 3.04
L21I | 2.59
L21S | 2.58
L21Q | 2.5
L21G | 2.04
L21E | 2.98
L21R | 2.37
L21T | 2.62
L21Y | 2.57
L21W | 2.62
L21M | 2.13
L21K | 3.15
L21V | 3.33
D14K | 2.54
D14T | 1.83
D14L | 2.62
D14P | 1.9
D14E | 2.75
D14S | 2.5

Variant | protein stability index
D14H | 1.81
D14V | 1.61
D14F | 2.81
D14C | 1.03
D14M | 1.75
D14Y | 1.62
D14W | 2.71
D14I | 1.93
D14A | 2.49
D14Q | 2.18
V11S | 1.79
V11Y | 1.51
V11L | 1.9
V11W | 2.88
V11N | 2.9
V11I | 2.24
V11P | 3.86
V11T | 3.14
V11M | 1.23
V11Q | 2.3
V11K | 3.7
V11R | 2.93

Variants of: B2
Assay: as above
Conditions: c terminus: a fixed tail appended

Variant | protein stability index
E4G | 3.07
E4R | 1.97
E4T | 1.74
E4S | 1.76
E4K | 1.45
E4Y | 1.72
E4V | 1.6
E4C | 1.82
E4A | 2.3
E4D | 2.35
E4H | 1.6
E4P | 1.84
E4I | 1.03
E4Q | 2.69
E4L | 2.61
E4M | 1.67
E4F | 1.88
E4W | 1.44
E4N | 1.92
Y5N | 2.73
Y5G | 2.4
Y5H | 2.1
Y5Q | 2.93

Variant | protein stability index
Y5W | 1.43
Y5K | 2.68
Y5P | 3.03
Y5C | 2.05
Y5A | 1.99
Y5L | 1.89
Y5D | 3.2
Y5E | 3.86
Y5S | 2.41
Y5F | 1.88
Y5T | 2.32
Y5V | 2.06
Y5R | 2.67
Y5M | 2.11
Y5I | 1.95
F1C | 3.3
F1L | 1.85
F1A | 4.23
F1S | 4.43
F1T | 4.14
F1K | 3.65
F1R | 3.74
F1I | 2.37

Variant | protein stability index
F1D | 4.46
F1Y | 2.62
F1H | 4.35
F1Q | 4.63
F1E | 4.75
F1V | 2.5
F1P | 4.46
F1G | 4.8
F1M | 2.71
F1N | 4.78
V3G | 3.07
V3A | 1.81
V3C | 2.24
V3W | 2.12
V3N | 3.01
V3Q | 2.32
V3I | 2.83
V3M | 2.64
V3L | 1.98
V3P | 2.03
V3S | 1.84
V3F | 1.51
V3K | 2.36

Variant | protein stability index
V3D | 2.15
V3T | 2.23
V3H | 2.77
V3E | 2.83
V3Y | 1.99
V3R | 2.02
V2H | 3.65
V2Q | 3.12
V2P | 4.09
V2A | 3.83
V2T | 2.38
V2F | 2.19
V2E | 3.73
V2W | 1.32
V2D | 4.2
V2I | 1.83
V2N | 3.64
V2C | 3.25
V2K | 3.6
V2L | 2.13
V2S | 2.97
V2M | 2.49
V2G | 3.95

Variant | protein stability index
V2Y | 1.66
V2R | 3.02
H6N | 2.2
H6P | 2
H6A | 1.9
H6M | 2.04
H6W | 1.35
H6E | 2.88
H6C | 3.73
H6S | 2.31
H6T | 1.76
H6Q | 2.06
H6I | 2.19
H6K | 1.74
H6Y | 2.16
H6G | 2.15
H6D | 3.13
H6R | 2.18
H6L | 2.02
H6F | 2.12
